Laboratory results taken from paper doi:10.1101/2021.06.07.447473.

Target: eIF2B(αβδγε)2 decamer, eIF2Bβ Avi-tagged and biotinylated (human) (UniProt Q14232)
Assay: SPR

With “Sandfly Fever Sicilian virus (SFSV) NSs protein with C-terminal 6xHIS tag (NSs::6xHIS) (natural protein)” the Kd was 43 nM.
